The assay addresses mouse LSR (lipolysis stimulated receptor) (mouse) (UniProt Q99KG5). As to the kind of experiment: cell-based or functional assay.

These results are taken from patent publication US20060252678A1.

Sequence of UniProt Q99KG5 (Q99KG5 36-594): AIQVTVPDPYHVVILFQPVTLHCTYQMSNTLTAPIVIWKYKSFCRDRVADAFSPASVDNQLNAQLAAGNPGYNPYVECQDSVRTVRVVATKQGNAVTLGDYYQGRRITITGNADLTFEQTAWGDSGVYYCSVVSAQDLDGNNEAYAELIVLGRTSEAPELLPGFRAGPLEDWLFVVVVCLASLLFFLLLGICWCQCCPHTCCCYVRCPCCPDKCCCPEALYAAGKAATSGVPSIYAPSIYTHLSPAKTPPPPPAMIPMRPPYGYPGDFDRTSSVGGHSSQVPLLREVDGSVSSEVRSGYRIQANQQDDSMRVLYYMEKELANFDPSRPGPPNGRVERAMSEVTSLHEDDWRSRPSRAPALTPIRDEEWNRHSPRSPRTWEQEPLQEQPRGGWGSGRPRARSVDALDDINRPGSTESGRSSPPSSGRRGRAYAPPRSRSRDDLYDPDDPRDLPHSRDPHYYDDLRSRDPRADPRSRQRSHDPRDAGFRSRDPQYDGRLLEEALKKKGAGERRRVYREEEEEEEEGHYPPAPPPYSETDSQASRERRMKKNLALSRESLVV

“125I-mouse leptin (from UniProt P41160 22-167) (ligand)” returned a cell-associated 125I-leptin in BPRCL mouse liver cells after pre-incubation with increasing AdipoQ (AQ) or globular AdipoQ (AQ-GH) of over 30%.
